B1: H240-Kn198/H240-Hl076/L73-k0 (antibody, human IgG1, kappa)
heavy 1: QDQLVQSGAEVKKPGASVKVSCKASGFNIKDTYIQWVRQAPGQGLEWMGRIDPLRKQTKYREKFEGRVTITADTSTNTAYMELSSLRSEDTAVYYCVRSGREFDYWGQGTLVTVSSASTKGPSVFPLAPSSKSTSGGTAALGCLVKDYFPEPVTVSWNSGALTSGVHTFPAVLQSSGLYSLSSVVTVPSSSLGTQTYICNVNHKPSNTKVDKKVEPKSCDKTHTCPPCPAPELQWGPMVFLFPPKPKDTLMISRTPEVTCVVVDVSDEEPEVKFNWYVDGVEVHNAKTKPREEQYNATYRVVSVLTVLHQDWLNGKEYKCKVSNKALPAPIEKTISKAKGQPREPQVCTLPPSRDELTKNQVSLWCLVKGFYPSDIAVEWESNGQPENNYKTTPPVLDSDGSFFLYSKLTVDKSRWQQGNVFSCSVMHEALHNHYTQKSLSLSP
heavy 2: QDQLVQSGAEVKKPGASVKVSCKASGFNIKDTYIQWVRQAPGQGLEWMGRIDPLRKQTKYREKFEGRVTITADTSTNTAYMELSSLRSEDTAVYYCVRSGREFDYWGQGTLVTVSSASTKGPSVFPLAPSSKSTSGGTAALGCLVKDYFPEPVTVSWNSGALTSGVHTFPAVLQSSGLYSLSSVVTVPSSSLGTQTYICNVNHKPSNTKVDKKVEPKSCDKTHTCPPCPAPELLGGPSVFLFPPKPKDTLMISRTPEVTCVVVDVSHEEPEVKFNWYVDGVEVHNAKTKPREEQYNSTYRVVSVLTVLHQDWLNGKEYKCKVSNDALPMPIEETISKAKGQPREPQVYTLPPSRCELTKNQVSLSCAVKGFYPSDIAVEWESNGQPENNYKTTPPVLDSDGSFFLVSKLTVDKSRWQQGNVFSCSVMHEALHNHYTQKSLSLSP
light: DIQMTQSPSSLSASVGDRVTITCRASQDIHKYIAWYQQKPGQAPRLLIQYTSTLQPGVPSRFSGSGSGTDYTFTISSLQPEDIATYYCLQYEQLRTFGGGTKVEIKRTVAAPSVFIFPPSDEQLKSGTASVVCLLNNFYPREAKVQWKVDNALQSGNSQESVTEQDSKDSTYSLSSTLTLSKADYEKHKVYACEVTHQGLSSPVTKSFNRGEC
notes: Anti-epiregulin heterodimerized IgG1, knobs-into-holes
B2: H240-Kn199/H240-Hl068/L73-k0 (antibody, human IgG1, kappa)
heavy 1: QDQLVQSGAEVKKPGASVKVSCKASGFNIKDTYIQWVRQAPGQGLEWMGRIDPLRKQTKYREKFEGRVTITADTSTNTAYMELSSLRSEDTAVYYCVRSGREFDYWGQGTLVTVSSASTKGPSVFPLAPSSKSTSGGTAALGCLVKDYFPEPVTVSWNSGALTSGVHTFPAVLQSSGLYSLSSVVTVPSSSLGTQTYICNVNHKPSNTKVDKKVEPKSCDKTHTCPPCPAPELYWGPMVFLFPPKPKDTLMISRTPEVTCVVVDVSDEDPEVKFNWYVDGVEVHNAKTKPREEQYNATYRVVSVLTVLHQDWLNGKEYKCKVSNKDLPAPIEKTISKAKGQPREPQVCTLPPSRDELTKNQVSLWCLVKGFYPSDIAVEWESNGQPENNYKTTPPVLDSDGSFFLYSKLTVDKSRWQQGNVFSCSVMHEALHNHYTQKSLSLSP
heavy 2: QDQLVQSGAEVKKPGASVKVSCKASGFNIKDTYIQWVRQAPGQGLEWMGRIDPLRKQTKYREKFEGRVTITADTSTNTAYMELSSLRSEDTAVYYCVRSGREFDYWGQGTLVTVSSASTKGPSVFPLAPSSKSTSGGTAALGCLVKDYFPEPVTVSWNSGALTSGVHTFPAVLQSSGLYSLSSVVTVPSSSLGTQTYICNVNHKPSNTKVDKKVEPKSCDKTHTCPPCPAPELLGGPSVFLFPPKPKDTLMISRTPEVTCVVVDVSHEEPEVKFNWYVDGVEVHNAKTKPREEQYNSTYRVVSVLTVLHQDWLNGKEYKCKVSNDALPKPIEETISKAKGQPREPQVYTLPPSRCELTKNQVSLSCAVKGFYPSDIAVEWESNGQPENNYKTTPPVLDSDGSFFLVSKLTVDKSRWQQGNVFSCSVMHEALHNHYTQKSLSLSP
light: DIQMTQSPSSLSASVGDRVTITCRASQDIHKYIAWYQQKPGQAPRLLIQYTSTLQPGVPSRFSGSGSGTDYTFTISSLQPEDIATYYCLQYEQLRTFGGGTKVEIKRTVAAPSVFIFPPSDEQLKSGTASVVCLLNNFYPREAKVQWKVDNALQSGNSQESVTEQDSKDSTYSLSSTLTLSKADYEKHKVYACEVTHQGLSSPVTKSFNRGEC
notes: as for B1
B3: H240-Kn200/H240-Hl076/L73-k0 (antibody, human IgG1, kappa)
heavy 1: QDQLVQSGAEVKKPGASVKVSCKASGFNIKDTYIQWVRQAPGQGLEWMGRIDPLRKQTKYREKFEGRVTITADTSTNTAYMELSSLRSEDTAVYYCVRSGREFDYWGQGTLVTVSSASTKGPSVFPLAPSSKSTSGGTAALGCLVKDYFPEPVTVSWNSGALTSGVHTFPAVLQSSGLYSLSSVVTVPSSSLGTQTYICNVNHKPSNTKVDKKVEPKSCDKTHTCPPCPAPESQWGPMVFLFPPKPKDTLMISRTPEVTCVVVDVSDEEPEVKFNWYVDGVEVHNAKTKPREEQYNATYRVVSVLTVLHQDWLNGKEYKCKVSNKALPAPIEKTISKAKGQPREPQVCTLPPSRDELTKNQVSLWCLVKGFYPSDIAVEWESNGQPENNYKTTPPVLDSDGSFFLYSKLTVDKSRWQQGNVFSCSVMHEALHNHYTQKSLSLSP
heavy 2: QDQLVQSGAEVKKPGASVKVSCKASGFNIKDTYIQWVRQAPGQGLEWMGRIDPLRKQTKYREKFEGRVTITADTSTNTAYMELSSLRSEDTAVYYCVRSGREFDYWGQGTLVTVSSASTKGPSVFPLAPSSKSTSGGTAALGCLVKDYFPEPVTVSWNSGALTSGVHTFPAVLQSSGLYSLSSVVTVPSSSLGTQTYICNVNHKPSNTKVDKKVEPKSCDKTHTCPPCPAPELLGGPSVFLFPPKPKDTLMISRTPEVTCVVVDVSHEEPEVKFNWYVDGVEVHNAKTKPREEQYNSTYRVVSVLTVLHQDWLNGKEYKCKVSNDALPMPIEETISKAKGQPREPQVYTLPPSRCELTKNQVSLSCAVKGFYPSDIAVEWESNGQPENNYKTTPPVLDSDGSFFLVSKLTVDKSRWQQGNVFSCSVMHEALHNHYTQKSLSLSP
light: DIQMTQSPSSLSASVGDRVTITCRASQDIHKYIAWYQQKPGQAPRLLIQYTSTLQPGVPSRFSGSGSGTDYTFTISSLQPEDIATYYCLQYEQLRTFGGGTKVEIKRTVAAPSVFIFPPSDEQLKSGTASVVCLLNNFYPREAKVQWKVDNALQSGNSQESVTEQDSKDSTYSLSSTLTLSKADYEKHKVYACEVTHQGLSSPVTKSFNRGEC
notes: as for B1

Legend:
Experiment in all cases: SPR (Biacore); KD of H240-Kn033/H240-Hl033/L73-k0 divided by KD of this variant
FcgRIIIaF = biological target: T1, FcgRIIIaF (human, UniProt P08637 17-208)
T1 construct: extracellular domain; also called FcγRIIIa F; 3aF; not shown: His tag attached to the C terminus
Procedure: (§1) H240-Kn204/H240-Hl211/L73-k0 and H240-Kn205/H240-Hl212/L73-k0 were prepared according to the method of Reference Example 1, by combining H240-Kn204 as one of the H chains and L73-k0 as the L chains with H240-Hl211 as the other H chain, and by combining H240-Kn205 as one of the H chains and L73-k0 as the L chains with H240-Hl212 as the other H chain, and then expressing them. The binding of the prepared variants to FcgRIa, FcgRIIaR, FcgRIIaH, FcgRIIb, FcgRIIIaF, and FcgRIIIaV was measured according to the method of Reference Example 8.
(§2) “fold 2aR”, “fold 2aH”, “fold 2b”, “fold 3aF”, and “fold 3aV” show the relative binding activity of each variant to FcgRIIaR, FcgRIIaH, FcgRIIb, FcgRIIIaF, and FcgRIIIaV, respectively, when the binding activity of H240-Kn033/H240-Hl033/L73-k0, a variant produced by introducing only alterations that promote formation of a heterodimerized antibody into a native IgG1, is defined as 1. Specifically, they are values obtained by dividing the KD value of H240-Kn033/H240-Hl033/L73-k0 for each FcgR by the KD value of an individual variant for each FcgR.
(§3) Analysis of interaction between objective antibody and the FcγR was carried out using Biacore T100 (GE Healthcare), Biacore T200, Biacore A100, and Biacore 4000. HBS-EP+ (GE Healthcare) was used as the running buffer, and the measurement temperature was set to 25° C. Chips produced by immobilizing the antigen peptide by the amine coupling method to a Series S sensor Chip CM5 (GE Healthcare), chips produced by allowing preliminarily biotinylated antigen peptides to interact with and immobilize onto a Series S Sensor Chip SA (certified) (GE Healthcare), chips produced by immobilizing Protein L (ACTIGEN, BioVision) to Series S Sencor Chip CM5 (GE Healthcare), or chips produced by immobilizing Protein A/G (Thermo Scientific) to Series S Sencor Chip CM5 (GE Healthcare) were used. Antibodies of interest were captured onto these chips, and allowed to interact to each FcγR diluted with running buffer.

FcgRIIb = biological target: T2, FcgRIIb (human, UniProt P31994 43-217)
T2 construct: extracellular domain; also called FcγRIIb; 2b; not shown: His tag attached to the C terminus
T2 sequence (looked up): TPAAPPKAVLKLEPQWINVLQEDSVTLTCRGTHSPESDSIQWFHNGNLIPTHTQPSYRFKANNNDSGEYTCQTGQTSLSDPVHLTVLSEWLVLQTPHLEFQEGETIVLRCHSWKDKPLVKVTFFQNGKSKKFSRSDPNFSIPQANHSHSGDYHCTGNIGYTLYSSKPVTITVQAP
Procedure: as §1, §2, §3

FcgRIIaH = biological target: T3, FcgRIIaH (human, UniProt P12318 34-217)
T3 construct: extracellular domain; also called FcγRIIa H; FcgRIIa type H; not shown: His tag attached to the C terminus
T3 sequence (looked up): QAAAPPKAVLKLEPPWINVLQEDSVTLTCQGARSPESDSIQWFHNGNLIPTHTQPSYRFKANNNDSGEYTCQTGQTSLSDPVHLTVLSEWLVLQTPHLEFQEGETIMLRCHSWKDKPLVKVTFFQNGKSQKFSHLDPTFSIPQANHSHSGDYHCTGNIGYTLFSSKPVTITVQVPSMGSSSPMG
Procedure: as §1, §2, §3

FcgRIIaR = biological target: T4, FcgRIIaR (human, UniProt P12318 34-217)
T4 construct: extracellular domain; also called FcγRIIa R; FcgRIIa type R; not shown: His tag attached to the C terminus
T4 sequence (looked up): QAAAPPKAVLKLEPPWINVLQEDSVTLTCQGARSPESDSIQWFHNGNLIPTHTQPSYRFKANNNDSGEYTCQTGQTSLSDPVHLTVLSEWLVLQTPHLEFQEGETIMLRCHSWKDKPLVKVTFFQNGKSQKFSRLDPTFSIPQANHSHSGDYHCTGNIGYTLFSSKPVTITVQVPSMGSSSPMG
Procedure: as §1, §2, §3

FcgRIIIaV = biological target: T5, FcgRIIIaV (human, UniProt P08637 17-208)
T5 construct: extracellular domain; also called FcγRIIIa V; 3aV; not shown: His tag attached to the C terminus
Procedure: as §1, §2, §3

T5 sequence (P08637 17-208 F176V limits assumed): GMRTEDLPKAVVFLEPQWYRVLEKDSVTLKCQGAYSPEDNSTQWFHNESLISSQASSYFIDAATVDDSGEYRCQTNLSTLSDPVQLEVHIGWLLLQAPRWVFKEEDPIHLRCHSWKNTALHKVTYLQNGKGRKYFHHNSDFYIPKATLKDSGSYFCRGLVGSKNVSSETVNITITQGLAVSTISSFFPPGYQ
T1 sequence (P08637 17-208): as the sequence (P08637 17-208 F176V limits assumed) above, with V160F counted along it

Binder	fold 3aF (FcgRIIIaF) [fold]	fold 2b (FcgRIIb) [fold]	fold 2aH (FcgRIIaH) [fold]	fold 2aR (FcgRIIaR) [fold]	fold 3aV (FcgRIIIaV) [fold]
B1	193	0.5	3.7	1.2	88.9
B2	126	25.4	19.3	37	117
B3	121	0.5	2.3	0.9	81.4

Reference: US20150344570A1 (published 2015)
